Results from patent US20240317834A1, “COMPOSITIONS AND METHODS FOR NEUROLOGICAL DISEASES” (CODA BIOTHERAPEUTICS, INC., priority 2020, published 2024).
Numbering of substitutions follows the chain as printed. Names and notes keep the numbering of the source.

System: Lenti-X 293T cells
Test: YFP fluorescence quenching anion reporter plate reader assay of engineered receptors stimulated with acetylcholine or a non-native ligand
Assay type: cell-based
Settings: for percent quench of YFP fluorescence, 10 uM ach: acetylcholine 10 uM; for percent quench of YFP fluorescence, 100 uM ach: acetylcholine 100 uM; for percent quench of YFP fluorescence, 1 mM ach: acetylcholine 1 mM; for percent quench of YFP fluorescence, 3 mM ach: acetylcholine 3 mM
In short: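 Lenti-X 293T cells carrying a YFP anion reporter were transiently transfected with channel DNA and assayed the next day in HEPES-buffered ECS at pH 7.2. Ligand (acetylcholine or non-native ligand) was added in NaI-substituted ECS. Percent quench was the mean of the last 10 s relative to the 15 s pre-addition baseline.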

B1: CODA217: engineered chimeric LGIC receptor, W77F in SEQ ID NO: 33 (protein)
chain: MRCSPGGVWLALAASLLHVSLQGEFQRKLYKELVKNYNPLERPVANDSQPLTVYFSLSLLQIMDVDEKNQVLTTNIFLQMSWTDHYLQWNVSEYPGVKTVRFPDGQIWKPDILLYNSADERFDATFHTNVLVNSSGHCQYLPPGIFKSSCPMDLKNFPMDVQTCKLKFGSWSYGGWSLDLQMQEADISGYIPNGEWDLVGIPGKRSERFYECCKEPYPDVTFTVTMRRRMGYYLIQMYIPSLLIVILSWISFWINMDAAPARVGLGITTVLTMTTQSSGSRASLPKVSYVKAIDIWMAVCLLFVFSALLEYAAVNFVSRQHKELLRFRRKRRHHKSPMLNLFQEDEAGEGRFNFSAYGMGPACLQAKDGISVKGANNSNTTNPPPAPSKSPEEMRKLFIQRAKKIDKISRIGFPMAFLIFNMFYWIIYKIVRREDVHNQ
modifications: synthetic sequence of chimeric LGIC
YFP fluorescence quenching using CNL001 (1 nM CNL001, first column): −22.273%
YFP fluorescence quenching using CNL001 (1 nM CNL001, second column): −19.415%
YFP fluorescence quenching using TC-5619/Bradanicline (3 nM brd): −12.1%
YFP fluorescence quenching using Varenicline (3 nM var, first column): 5.662
YFP fluorescence quenching using Varenicline (3 nM var, second column): 7.57
YFP fluorescence quenching using CNL001 (10 nM CNL001, first column): −9.563%
YFP fluorescence quenching using CNL001 (10 nM CNL001, second column): 6.398%
YFP fluorescence quenching using TC-5619/Bradanicline (30 nM brd): −14.72%
YFP fluorescence quenching using Facinicline (30 nM fac): −10.14
YFP fluorescence quenching using Varenicline (30 nM var, first column): 13.968
YFP fluorescence quenching using Varenicline (30 nM var, second column): 19.079
YFP fluorescence quenching using CNL001 (50 nM CNL001, first column): 61.938%
YFP fluorescence quenching using CNL001 (50 nM CNL001, second column): 66.837%
YFP fluorescence quenching using ABT-126 (50 nM abt): 37.81%
YFP fluorescence quenching using CNL001 (100 nM CNL001, first column): 79.791%
YFP fluorescence quenching using CNL001 (100 nM CNL001, second column): 80.908%
YFP fluorescence quenching using CNL002 (100 nM CNL002): 67.81%
YFP fluorescence quenching using ABT-126 (100 nM abt): 57.31%
YFP fluorescence quenching using AZD-0328 (100 nM azd0328): −7.57%
YFP fluorescence quenching using ABT-126 (300 nM abt): 12.61%
YFP fluorescence quenching using AZD-0328 (300 nM azd0328): 7.08%
YFP fluorescence quenching using TC-5619/Bradanicline (300 nM brd): −6.3%
YFP fluorescence quenching using Facinicline (300 nM fac): 68.29
YFP fluorescence quenching using Varenicline (300 nM var, first column): 16.183
YFP fluorescence quenching using Varenicline (300 nM var, second column): 18.025
YFP fluorescence quenching using Varenicline (500 nM var, first column): 23.366
YFP fluorescence quenching using Varenicline (500 nM var, second column): 19.206
YFP fluorescence quenching using CNL001 (1 uM CNL001, first column): 83.444%
YFP fluorescence quenching using CNL001 (1 uM CNL001, second column): 83.905%
YFP fluorescence quenching using CNL002 (1 uM CNL002): 69.42%
YFP fluorescence quenching using ABT-126 (1 uM abt): 66.05%
YFP fluorescence quenching using TC-6987 (1 uM tc6987): −10.35
YFP fluorescence quenching using Varenicline (1 uM var, first column): 34.69
YFP fluorescence quenching using Varenicline (1 uM var, second column): 30.504
YFP fluorescence quenching using TC-6987 (10 uM tc6987): −13.93
YFP fluorescence quenching using CNL002 (30 uM CNL002): 73.64%
YFP fluorescence quenching using AZD-0328 (30 uM azd0328): 81.59%
YFP fluorescence quenching using Facinicline (30 uM fac): 87.35
YFP fluorescence quenching using TC-6987 (500 uM tc6987): −7.54
percent quench of YFP fluorescence, 10 uM ach: −5.86%
percent quench of YFP fluorescence, 100 uM ach: 70.06%
percent quench of YFP fluorescence, 1 mM ach: 68.71%
percent quench of YFP fluorescence, 3 mM ach: 73.45%

B2: CODA109: engineered chimeric LGIC receptor, S170T in SEQ ID NO: 33 (protein)
chain: B1 chain with F77W, S170T
modifications: synthetic sequence of chimeric LGIC
YFP fluorescence quenching using CNL001 (1 nM CNL001, first column): 19.755%
YFP fluorescence quenching using CNL001 (1 nM CNL001, second column): 65.484%
YFP fluorescence quenching using TC-5619/Bradanicline (3 nM brd): 70.58%
YFP fluorescence quenching using Varenicline (3 nM var, first column): −20.96
YFP fluorescence quenching using Varenicline (3 nM var, second column): −19.953
YFP fluorescence quenching using CNL001 (10 nM CNL001, first column): 79.024%
YFP fluorescence quenching using CNL001 (10 nM CNL001, second column): 81.563%
YFP fluorescence quenching using TC-5619/Bradanicline (30 nM brd): 80.71%
YFP fluorescence quenching using Facinicline (30 nM fac): 76.45
YFP fluorescence quenching using Varenicline (30 nM var, first column): −16.094
YFP fluorescence quenching using Varenicline (30 nM var, second column): −21.502
YFP fluorescence quenching using CNL001 (50 nM CNL001, first column): 81.926%
YFP fluorescence quenching using CNL001 (50 nM CNL001, second column): 83.092%
YFP fluorescence quenching using ABT-126 (50 nM abt): 55.83%
YFP fluorescence quenching using CNL001 (100 nM CNL001, first column): 83%
YFP fluorescence quenching using CNL001 (100 nM CNL001, second column): 83.811%
YFP fluorescence quenching using CNL002 (100 nM CNL002): 73.48%
YFP fluorescence quenching using ABT-126 (100 nM abt): 68.89%
YFP fluorescence quenching using AZD-0328 (100 nM azd0328): 84.01%
YFP fluorescence quenching using Facinicline (100 nM fac): 82.45
YFP fluorescence quenching using ABT-126 (300 nM abt): 72.52%
YFP fluorescence quenching using AZD-0328 (300 nM azd0328): 87.08%
YFP fluorescence quenching using TC-5619/Bradanicline (300 nM brd): 80.66%
YFP fluorescence quenching using Facinicline (300 nM fac): 71.09
YFP fluorescence quenching using Varenicline (300 nM var, first column): 64.373
YFP fluorescence quenching using Varenicline (300 nM var, second column): 71.198
YFP fluorescence quenching using Varenicline (500 nM var, first column): 71.892
YFP fluorescence quenching using Varenicline (500 nM var, second column): 73.53
YFP fluorescence quenching using CNL001 (1 uM CNL001, first column): 81.834%
YFP fluorescence quenching using CNL001 (1 uM CNL001, second column): 83.858%
YFP fluorescence quenching using CNL002 (1 uM CNL002): 70.03%
YFP fluorescence quenching using ABT-126 (1 uM abt): 70.96%
YFP fluorescence quenching using TC-6987 (1 uM tc6987): 71.45
YFP fluorescence quenching using Varenicline (1 uM var, first column): 75.461
YFP fluorescence quenching using Varenicline (1 uM var, second column): 78.578
YFP fluorescence quenching using TC-6987 (10 uM tc6987): 71.04
YFP fluorescence quenching using AZD-0328 (30 uM azd0328): 87.27%
YFP fluorescence quenching using Facinicline (30 uM fac): 69.41
YFP fluorescence quenching using TC-6987 (500 uM tc6987): 66.2
percent quench of YFP fluorescence, 10 uM ach: 82.91%
percent quench of YFP fluorescence, 30 uM ach (acetylcholine 30 uM): 82.53%
percent quench of YFP fluorescence, 50 uM ach (acetylcholine 50 uM): 82.11%
percent quench of YFP fluorescence, 100 uM ach: 83.68%
percent quench of YFP fluorescence, 1 mM ach: 69.89%
percent quench of YFP fluorescence, 3 mM ach: 78.12%
